# Source: IntAct's records for PubMed 29039417
# B1: Protein PTHB1 (Homo sapiens), Q3SYG4 (parent)
# chain: MSLFKARDWWSTILGDKEEFDQGCLCLANVDNSGNGQDKIIVGSFMGYLRIFSPHPAKTGDGAQAEDLLLEVDLRDPVLQVEVGKFVSGTEMLHLAVLHSRKLCVYSVSGTLGNVEHGNQCQMKLMYEHNLQRTACNMTYGSFGGVKGRDLICIQSMDGMLMVFEQESYAFGRFLPGFLLPGPLAYSSRTDSFLTVSSCQQVESYKYQVLAFATDADKRQETEQQKLGSGKRLVVDWTLNIGEQALDICIVSFNQSASSVFVLGERNFFCLKDNGQIRFMKKLDWSPSCFLPYCSVSEGTINTLIGNHNNMLHIYQDVTLKWATQLPHIPVAVRVGCLHDLKGVIVTLSDDGHLQCSYLGTDPSLFQAPNVQSRELNYDELDVEMKELQKIIKDVNKSQGVWPMTEREDDLNVSVVVSPNFDSVSQATDVEVGTDLVPSVTVKVTLQNRVILQKAKLSVYVQPPLELTCDQFTFEFMTPDLTRTVSFSVYLKRSYTPSELEGNAVVSYSRPTDRNPDGIPRVIQCKFRLPLKLICLPGQPSKTASHKITIDTNKSPVSLLSLFPGFASQSDDDQVNVMGFHFLGGARITVLASKTSQRYRIQSEQFEDLWLITNELILRLQEYFEKQGVKDFACSFSGSIPLQEYFELIDHHFELRINGEKLEELLSERAVQFRAIQRRLLARFKDKTPAPLQHLDTLLDGTYKQVIALADAVEENQGNLFQSFTRLKSATHLVILLIALWQKLSADQVAILEAAFLPLQEDTQELGWEETVDAAISHLLKTCLSKSSKEQALNLNSQLNIPKDTSQLKKHITLLCDRLSKGGRLCLSTDAAAPQTMVMPGGCTTIPESDLEERSVEQDSTELFTNHRHLTAETPRPEVSPLQGVSE
# partner: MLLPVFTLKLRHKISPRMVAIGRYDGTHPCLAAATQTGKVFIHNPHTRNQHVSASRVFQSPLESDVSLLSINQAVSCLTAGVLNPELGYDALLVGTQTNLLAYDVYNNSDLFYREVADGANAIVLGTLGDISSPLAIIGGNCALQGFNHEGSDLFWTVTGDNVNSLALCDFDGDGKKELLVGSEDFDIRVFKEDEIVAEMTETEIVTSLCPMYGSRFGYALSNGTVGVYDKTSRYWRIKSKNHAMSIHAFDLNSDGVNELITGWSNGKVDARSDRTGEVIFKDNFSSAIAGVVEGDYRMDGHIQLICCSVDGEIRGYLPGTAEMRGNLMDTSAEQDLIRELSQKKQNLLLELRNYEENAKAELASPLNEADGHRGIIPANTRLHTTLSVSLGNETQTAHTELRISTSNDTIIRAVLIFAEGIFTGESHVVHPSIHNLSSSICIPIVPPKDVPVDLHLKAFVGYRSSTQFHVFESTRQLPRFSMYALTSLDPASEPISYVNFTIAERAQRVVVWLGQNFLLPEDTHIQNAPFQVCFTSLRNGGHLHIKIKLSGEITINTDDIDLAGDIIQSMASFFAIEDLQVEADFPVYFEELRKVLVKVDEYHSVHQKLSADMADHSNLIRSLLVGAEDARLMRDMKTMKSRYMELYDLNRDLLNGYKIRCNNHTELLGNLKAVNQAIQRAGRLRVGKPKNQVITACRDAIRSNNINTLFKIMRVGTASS
# Variants of: B1
# Details: with bbs2_human BBS2, Q9BXC9
row,Variant,effect of a mutation on the interaction
1,R854A,with no effect
2,R854K,with no effect
3,R854E,with no effect
4,S855K,with no effect
5,S855A,with no effect
6,S855E,with no effect
7,D850K,with no effect
8,D850E,with no effect
9,D850A,with no effect
10,V856K,with no effect
11,V856A,with no effect
12,V856E,with no effect
13,P847K,with no effect
14,P847A,with no effect
15,P847E,with no effect
16,P847T,disrupting interaction strength
17,L851A,with no effect
18,L851E,with no effect
19,L851K,with no effect
20,S849E,with no effect

row,Variant,effect of a mutation on the interaction
1,S849K,with no effect
2,S849A,with no effect
3,E852K,with no effect
4,E852A,with no effect
5,E862K,with no effect
6,E862A,with no effect
7,E857K,with no effect
8,E857A,with no effect
9,S860E,with no effect
10,S860A,with no effect
11,S860K,with no effect
12,E848K,with no effect
13,E848A,with no effect
14,Q858A,with no effect
15,Q858K,with no effect
16,Q858E,with no effect
17,D859A,with no effect
18,D859K,with no effect
19,D859E,with no effect

# Second part, the variant after the results:
row,effect of a mutation on the interaction,Variant
1,with no effect,H867A
2,with no effect,H867E
3,with no effect,H867K
4,with no effect,V879K
5,with no effect,V879E
6,with no effect,V879A
7,with no effect,E878K
8,with no effect,E878A
9,with no effect,T865E
10,with no effect,T865A
11,with no effect,T865K
12,with no effect,E873A
13,with no effect,E873K
14,with no effect,L863A
15,with no effect,L863E
16,with no effect,L863K
17,with no effect,R868A
18,with no effect,R868K
19,with no effect,R868E
20,with no effect,L882K
21,with no effect,L882A
22,with no effect,L882E
23,with no effect,S880A
24,with no effect,S880K
25,with no effect,S880E
26,with no effect,R876K

row,effect of a mutation on the interaction,Variant
1,with no effect,R876A
2,with no effect,R876E
3,with no effect,Q883A
4,with no effect,Q883K
5,with no effect,Q883E
6,with no effect,T874E
7,with no effect,T874A
8,with no effect,T874K
9,with no effect,L870K
10,with no effect,L870A
11,with no effect,L870E
12,with no effect,N866E
13,with no effect,N866K
14,with no effect,N866A
15,with no effect,V885E
16,with no effect,V885K
17,with no effect,V885A
18,with no effect,P881E
19,with no effect,P881K
20,with no effect,P881A
21,with no effect,T871A
22,with no effect,T871E
23,with no effect,T871K
24,with no effect,P877E
25,with no effect,P877K
26,with no effect,P877A
